From patent US20210317209A1 (University of Texas, published 2021)

What was measured:
[1] = biological target: T1, recombinant human CD79b protein (human, UniProt P40259 29-159, limits assumed); experiment: column EC50(ng/ml) of the drawn table; the table names no assay, the filing's only titration is the ELISA on recombinant human CD79b protein of FIG. 2B
T1 sequence (looked up): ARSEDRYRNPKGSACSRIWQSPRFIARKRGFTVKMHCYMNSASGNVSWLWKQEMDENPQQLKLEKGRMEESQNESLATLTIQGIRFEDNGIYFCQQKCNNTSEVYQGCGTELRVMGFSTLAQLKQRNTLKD

[2] = biological target: T1, recombinant human CD79b protein; experiment: ELISA on recombinant human CD79b protein
[3] = biological target: T1, recombinant human CD79b protein; experiment: Octet assay

EC50 [1]: 0.0162 µg/mL
EC50 (read off the curve) [2]: ~0.02 µg/mL
Kd [3]: 1.44 nM
B1: anti-human CD79b monoclonal antibody clone 14 (IgG1) (antibody, V domains shown)
VH: EVQLQESGPELKKPGETVKISCKASGYTFTDYSMHWVKQAPGKGLKWMGWINTETGEPTYADDFKGRFAFSLETSASTAYLQINNLKNDDTATYFCNMDSWGQGTSVTVSS
VL: QIVLTQSPAIMSASPGEKVTMTCSASSSVSYMWWYHQKPGSSPRLLIFDTSNLASGVPVRFSGSGSGTSYSLTISRMEAEDAATYYCQQWTSYPYTFGGGTKLEIK
notes: Murine hybridoma antibody, IgG1; It was conjugated with a fluorochrome for cell staining
